Assay results reported in publication doi:10.1101/2021.04.03.438258.

Molecular target: SARS-CoV-2 HexaPro S (SARS-CoV-2)
Experiment: cryo-EM structure

**Q.** With “SARS-CoV-2 HexaPro S (domain or fragment)” as the substance, how does the stoichiometry N read?
**A.** 3
